Assay results reported in article PMC9541495, “Understanding the interaction of 14‐3‐3 proteins with hDMX and hDM2: a structural and biophysical study” (The Febs Journal, 2022).

T1: FAM‐Ahx‐hDMX_(335‐373) ^pSer342/pSer367 (human, phosphoserine at 342 and at 367; N-terminal FAM-Ahx (5,6-carboxyfluorescein on an aminohexanoic acid linker); C-terminal amide)
T1 construct: hDMX (human double minute 4 protein, hDM4), human, residues 335-373; Tracer form used in the FA assays; source: synthetic peptide (Fmoc SPPS on Rink amide ProTide resin, HPLC purified)
T1 peptide: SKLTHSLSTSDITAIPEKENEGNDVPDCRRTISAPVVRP

T2: 14‐3‐3τ (human, UniProt P27348 1-245)
T2 construct: 14-3-3 tau/theta, human, full-length protein from the pProEx HTb-His-14-3-3 construct; Written as the protomer; tag removal is told only for the ∆C proteins; also called τ/θ; source: E. coli BL21(DE3), purified (Ni2+-NTA, dialysis)
T2 sequence (looked up): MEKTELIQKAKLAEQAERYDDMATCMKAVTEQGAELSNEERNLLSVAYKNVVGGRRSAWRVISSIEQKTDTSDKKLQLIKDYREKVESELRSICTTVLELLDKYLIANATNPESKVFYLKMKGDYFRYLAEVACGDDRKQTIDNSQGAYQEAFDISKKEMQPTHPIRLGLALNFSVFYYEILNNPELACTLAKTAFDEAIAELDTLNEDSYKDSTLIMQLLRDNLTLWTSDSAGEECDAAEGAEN

T3: 14‐3‐3ε (human, UniProt P62258 1-255)
T3 construct: 14-3-3 epsilon, human, full-length protein from the pProEx HTb-His-14-3-3 construct; Written as the protomer; tag removal is told only for the ∆C proteins; source: E. coli BL21(DE3), purified (Ni2+-NTA, dialysis)
T3 sequence (looked up): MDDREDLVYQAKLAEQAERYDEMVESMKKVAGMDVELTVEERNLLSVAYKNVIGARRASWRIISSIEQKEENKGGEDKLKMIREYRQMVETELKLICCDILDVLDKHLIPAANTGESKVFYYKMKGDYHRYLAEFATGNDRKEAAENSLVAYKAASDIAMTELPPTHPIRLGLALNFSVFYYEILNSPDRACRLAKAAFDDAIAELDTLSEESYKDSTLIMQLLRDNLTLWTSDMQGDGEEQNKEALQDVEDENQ

T4: 14‐3‐3ζ (human, UniProt P63104 1-245)
T4 construct: 14-3-3 zeta, human, full-length protein from the pProEx HTb-His-14-3-3 construct; Written as the protomer; tag removal is told only for the ∆C proteins; source: E. coli BL21(DE3), purified (Ni2+-NTA, dialysis)
T4 sequence (looked up): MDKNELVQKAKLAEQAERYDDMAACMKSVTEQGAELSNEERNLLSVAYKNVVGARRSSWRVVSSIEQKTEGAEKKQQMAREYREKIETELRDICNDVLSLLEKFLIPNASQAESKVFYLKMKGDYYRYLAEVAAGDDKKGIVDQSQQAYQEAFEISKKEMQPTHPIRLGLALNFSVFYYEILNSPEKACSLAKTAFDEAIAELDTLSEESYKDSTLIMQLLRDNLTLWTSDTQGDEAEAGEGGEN

T5: 14‐3‐3β (human, UniProt P31946 1-246)
T5 construct: 14-3-3 beta, human, full-length protein from the pProEx HTb-His-14-3-3 construct; Written as the protomer; tag removal is told only for the ∆C proteins; source: E. coli BL21(DE3), purified (Ni2+-NTA, dialysis)
T5 sequence (looked up): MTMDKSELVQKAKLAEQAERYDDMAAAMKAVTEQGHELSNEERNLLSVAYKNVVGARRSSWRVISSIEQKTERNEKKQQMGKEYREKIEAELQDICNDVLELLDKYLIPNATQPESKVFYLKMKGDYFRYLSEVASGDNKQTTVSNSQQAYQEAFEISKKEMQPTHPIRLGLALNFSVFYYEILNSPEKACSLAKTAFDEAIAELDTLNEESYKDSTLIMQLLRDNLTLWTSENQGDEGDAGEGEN

T6: 14‐3‐3σ (human, UniProt P31947 1-248)
T6 construct: 14-3-3 sigma, human, full-length protein from the pProEx HTb-His-14-3-3 construct (used in the FA assays); Written as the protomer; tag removal is told only for the ∆C proteins; source: E. coli BL21(DE3), purified (Ni2+-NTA, dialysis)
T6 sequence (looked up): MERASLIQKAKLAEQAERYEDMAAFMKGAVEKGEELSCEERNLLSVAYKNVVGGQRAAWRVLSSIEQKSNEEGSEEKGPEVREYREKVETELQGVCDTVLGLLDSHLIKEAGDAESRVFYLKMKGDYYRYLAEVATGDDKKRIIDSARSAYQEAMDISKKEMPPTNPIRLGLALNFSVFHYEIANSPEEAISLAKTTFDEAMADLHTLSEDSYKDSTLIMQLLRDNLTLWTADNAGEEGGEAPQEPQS

B1: 14‐3‐3η (natural protein, human, UniProt Q04917 1-246, looked up)
chain: MGDREQLLQRARLAEQAERYDDMASAMKAVTELNEPLSNEDRNLLSVAYKNVVGARRSSWRVISSIEQKTMADGNEKKLEKVKAYREKIEKELETVCNDVLSLLDKFLIKNCNDFQYESKVFYLKMKGDYYRYLAEVASGEKKNSVVEASEAAYKEAFEISKEQMQPTHPIRLGLALNFSVFYYEIQNAPEQACLLAKQAFDDAIAELDTLNEDSYKDSTLIMQLLRDNLTLWTSDQQDEEAGEGN
notes: 14-3-3 eta, human, full-length protein from the pProEx HTb-His-14-3-3 construct; Captured on an NTA chip in SPR; source: E. coli BL21(DE3), purified (Ni2+-NTA, dialysis)
B2: FAM‐Ahx‐hDM2_(160‐192) ^pSer166/pSer186 (peptide)
peptide: SRRRAISETEENSDELSGERQRKRHKSDSISLS
modifications: phosphoserine at 166 and at 186; N-terminal FAM-Ahx (5,6-carboxyfluorescein on an aminohexanoic acid linker); C-terminal amide
notes: hDM2 (human double minute 2 protein), human, residues 160-192; Tracer form used in the FA assays; source: synthetic peptide (Fmoc SPPS on Rink amide ProTide resin, HPLC purified)

Tests used:
[1] = target: the molecule itself; assay: AUC; sedimentation velocity; 14 μM 14-3-3η alone or with 7 μM or 14 μM hDMX pSer342/pSer367 peptide; 10 mM HEPES, 150 mM NaCl, pH 7.4; 25 °C; c(s) by SEDFIT
[2] = target: T1, FAM‐Ahx‐hDMX_(335‐373) ^pSer342/pSer367; assay: fluorescence polarisation; fluorescence anisotropy, direct titration: 14-3-3 protein titrated (1/2 dilution series) against 50 nM FAM-Ahx tracer peptide; 10 mM HEPES, 150 mM NaCl, 0.1% Tween 20, 0.1% BSA, pH 7.4; 384 well plates, triplicates; protein concentration as 14-3-3 monomer; 1:1 fit, biphasic curves fitted as two separate 1:1 events (Kd1, Kd2); conditions: both partners purified
[3] = target: B2; assay: as above; conditions: both partners purified
14‐3‐3τ = target: T2, 14‐3‐3τ; assay: as above; conditions: both partners purified
14‐3‐3ε = target: T3, 14‐3‐3ε; assay: as above; conditions: both partners purified
14‐3‐3ζ = target: T4, 14‐3‐3ζ; assay: as above; conditions: both partners purified
14‐3‐3β = target: T5, 14‐3‐3β; assay: as above; conditions: both partners purified
14‐3‐3σ = target: T6, 14‐3‐3σ; assay: as above; conditions: both partners purified

Binder	stoichiometry N [1]	Kd1 (first binding event) [2]	Kd1 (first binding event) [3]	binding result (14‐3‐3τ)	binding result (14‐3‐3ε)	binding result (14‐3‐3ζ)	binding result (14‐3‐3β)	binding result (14‐3‐3σ)
B1	2	0.03 ± 0.006 µM	0.05 ± 0.012 µM	–	–	–	–	–
B2	–	–	–	binds	binds	binds	binds	binds
